# From the supplement of paper PMC7125110
# ± gives the standard error. For some of these results: Variants at the floor of the assay were thinned out.
# B1: glmS ribozyme (parent)
# chain: AUAAAAGCGCCAGAACUACAGAAAUGUAGUUGACGAGGAGGAGGUUUAUCGAAUUUUCGGCGGAUGCCUCCAAA
# What was measured:
# Conditions in all cases: with glucosamine-6-phosphate
# [1] = variants of: B1; experiment: kcat; higher = faster cleavage; RNA array
# Procedure, shortened: (§1)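 Barcoded ribozyme variants, transcribed in situ by E. coli RNA polymerase on sequenced MiSeq chips, were followed via a hybridised Cy3 probe at 37 °C. Glucosamine-6-phosphate ranged from 40 μM to 10 mM in HEPES/KCl/Mg(OAc)2 buffer. kobs came from decay fits to per-tile medians, and kcat and KM from weighted Michaelis–Menten fits.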
# [2] = variants of: B1; experiment: KM; higher = weaker cofactor use; RNA array
# Procedure, shortened: as §1
# [3] = variants of: B1; experiment: self-cleavage kobs at 40 uM GlcN6P; higher = faster cleavage; RNA array
# Procedure, shortened: as §1
# [4] = variants of: B1; experiment: self-cleavage kobs at 160 uM GlcN6P; higher = faster cleavage; RNA array
# Procedure, shortened: as §1
# [5] = variants of: B1; experiment: self-cleavage kobs at 640 uM GlcN6P; higher = faster cleavage; RNA array
# Procedure, shortened: as §1
# [6] = variants of: B1; experiment: self-cleavage kobs at 2500 uM GlcN6P; higher = faster cleavage; RNA array
# Procedure, shortened: as §1
# [7] = variants of: B1; experiment: self-cleavage kobs at 10000 uM GlcN6P; higher = faster cleavage; RNA array
# Procedure, shortened: as §1
Variant,kcat [1] [s⁻¹],KM [2] [µM],self-cleavage kobs at 40 uM GlcN6P [3] [s⁻¹],self-cleavage kobs at 160 uM GlcN6P [4] [s⁻¹],self-cleavage kobs at 640 uM GlcN6P [5] [s⁻¹],self-cleavage kobs at 2500 uM GlcN6P [6] [s⁻¹],self-cleavage kobs at 10000 uM GlcN6P [7] [s⁻¹]
A53C C71U,0.00685 ± 0.001,1760 ± 360,0.000156 ± 2.5e-05,0.000539 ± 0.0001,0.00167 ± 0.00036,0.00474 ± 0.00067,0.00509 ± 0.0011
A53C C71A,0.000797 ± 0.00016,1610 ± 520,–,6.89e-05 ± 1.5e-05,0.000254 ± 0.00011,0.000705 ± 0.00017,0.000613 ± 0.00013
A53G A64G,0.0648 ± 0.023,2430 ± 1000,0.00117 ± 0.00012,0.00264 ± 0.00067,0.0149 ± 0.0022,0.0373 ± 0.01,0.0493 ± 0.012
U56G C61A,< 1e-05,–,–,–,–,–,–
U54C C71G,0.00083 ± 0.00027,–,–,0.000132 ± 5.7e-05,0.000424 ± 0.00013,0.000351 ± 0.00011,0.00091 ± 0.00016
U54G C58G,0.000237 ± 2.6e-05,4280 ± 1000,–,–,–,9.35e-05 ± 1.7e-05,0.000164 ± 2e-05
U57C U69G,2.77e-05 ± 6.2e-06,–,–,3.31e-05 ± 1.4e-05,3.38e-05 ± 1.3e-05,–,–
U57G,0.000109 ± 3.4e-06,2910 ± 250,–,–,2.22e-05 ± 1.9e-06,4.95e-05 ± 1.4e-06,8.52e-05 ± 1.5e-06
U57A,0.000404 ± 1.3e-05,3120 ± 170,–,2.27e-05 ± 2.2e-06,6.91e-05 ± 1.6e-06,0.000175 ± 4e-06,0.000311 ± 6.3e-06
U57C,0.000311 ± 3.8e-06,3180 ± 76,–,1.34e-05 ± 2.2e-06,5.24e-05 ± 1.5e-06,0.000136 ± 3.2e-06,0.000236 ± 4.4e-06
A53C G59U,< 1e-05,–,–,–,–,–,–
U56G U69A,0.00018 ± 3.2e-05,–,4.08e-05 ± 1.8e-05,–,0.000102 ± 2.7e-05,0.000186 ± 3.1e-05,0.000176 ± 3.7e-05
U56G U69G,4.9e-05 ± 9e-06,–,–,–,8.25e-05 ± 1.5e-05,4.98e-05 ± 1.3e-05,4.12e-05 ± 7.4e-06
U56G A64C,7.21e-05 ± 4.9e-06,1500 ± 420,–,< 1e-05,2.44e-05 ± 1.1e-05,3.92e-05 ± 1.5e-05,6.35e-05 ± 8.6e-06
U57G C61G C70U,2.66e-05 ± 9e-06,–,–,–,3.58e-05 ± 1.7e-05,–,–
U54A A64G,0.0348 ± 0.011,2310 ± 830,0.00058 ± 7.4e-05,0.00313 ± 0.0007,0.00654 ± 0.0014,–,0.029 ± 0.0072
U57C C70G,1.91e-05 ± 3.1e-06,–,–,–,–,–,–

Variant,kcat [1] [s⁻¹],KM [2] [µM],self-cleavage kobs at 40 uM GlcN6P [3] [s⁻¹],self-cleavage kobs at 160 uM GlcN6P [4] [s⁻¹],self-cleavage kobs at 640 uM GlcN6P [5] [s⁻¹],self-cleavage kobs at 2500 uM GlcN6P [6] [s⁻¹],self-cleavage kobs at 10000 uM GlcN6P [7] [s⁻¹]
U57C C70A,1.97e-05 ± 8.4e-06,–,–,–,–,–,–
U56G C68A,2.79e-05 ± 2.6e-06,–,–,–,–,2.72e-05 ± 1.3e-05,–
U56G U65G,0.00371 ± 0.00083,7360 ± 2500,3.29e-05 ± 1.6e-05,–,0.000301 ± 6e-05,0.000811 ± 0.00023,0.00218 ± 0.00031
A53G C67G,0.007 ± 0.0028,–,0.000155 ± 1.6e-05,0.000304 ± 4.6e-05,0.00225 ± 0.00035,0.00466 ± 0.00096,0.00539 ± 0.00069
U54G C70A,0.000123 ± 2.4e-05,–,8.02e-05 ± 1.4e-05,7.71e-05 ± 1.8e-05,0.000198 ± 2.9e-05,0.000143 ± 2.9e-05,0.000109 ± 1.6e-05
U55G G66U,0.00299 ± 0.00092,4240 ± 1800,4.47e-05 ± 1.7e-05,8.99e-05 ± 1.6e-05,0.00054 ± 0.0001,0.00126 ± 0.00021,0.00195 ± 0.00034
U56G C70U,0.00109 ± 0.00036,–,0.000308 ± 4.6e-05,0.000437 ± 7.8e-05,0.000908 ± 0.00022,0.000943 ± 0.0003,0.00182 ± 0.00036
U57A C68U,0.00017 ± 1.9e-05,2500 ± 560,–,–,3.78e-05 ± 8.1e-06,7.94e-05 ± 1e-05,0.000143 ± 2.2e-05
U54G C68G,0.0001 ± 1e-05,89.1 ± 43,2.37e-05 ± 7.3e-06,6.82e-05 ± 8.7e-06,0.000111 ± 1.1e-05,8.41e-05 ± 9.1e-06,9.69e-05 ± 8.7e-06
A53U C58U,6.85e-05 ± 2.7e-06,2650 ± 390,–,–,–,3.23e-05 ± 1.2e-05,5.43e-05 ± 6.6e-06
A53U C58A,0.000327 ± 1.5e-05,3010 ± 250,–,–,5.94e-05 ± 5.9e-06,0.000143 ± 1.3e-05,0.000256 ± 2.2e-05
U57A G60C,2.43e-05 ± 9.7e-06,–,–,–,–,–,–
U55A U69G,6.88e-05 ± 8.3e-06,–,–,8.26e-05 ± 1.6e-05,6.99e-05 ± 1.2e-05,7.05e-05 ± 8.6e-06,5.04e-05 ± 1.3e-05
U55C C61G,< 1e-05,–,< 1e-05,–,–,–,< 1e-05
U57G C61G,1.3e-05 ± 4.8e-06,–,–,–,–,–,–
U54C C61U,2.59e-05 ± 2.6e-06,–,–,–,–,–,–
A53U U56A,0.00699 ± 0.0012,1820 ± 450,0.000172 ± 2.1e-05,0.000573 ± 8e-05,0.00169 ± 0.0002,0.00313 ± 0.00052,0.00667 ± 0.00065
